Laboratory results as given in the supplement of paper PMC6757056.
± gives the standard deviation of the averaged measurements.

B1: library; a variant is named by its letters at N, in order (parent)
chain: GCUGUCACCGAGAAACUGUGAAGUAUAUCUUAAACCUGGGCACUUAAAAGAUAUAUGGAGUUAGUAGUGCAACCUGCUCGGUCUGAUGAGUCCNNNNNNGGACGAAACAGC

Legend:
cyclic di-GMP [1] = variants of: B1; test: normalized RNA/DNA level without ligand (relative to sTRSVctl = 100) (log10 (% of sTRSVctl)); HEK293T; ligand: cyclic di-GMP (c-di-GMP-II aptamer); higher = less ribozyme self-cleavage, higher mRNA level; settings: reporter: mCherry (pCS4076), ligand present: no
How it was run: (§1)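 Library plasmids carrying ribozyme switches linked to mCherry, or to eGFP in some ligand experiments, were transfected into HEK293T at 4 µg per 6-well well, with any ligand added 1 h earlier. Seventy-two hours on, total RNA was extracted with EDTA and reverse-transcribed, amplified, barcoded and sequenced. RNA level was RNA over DNA reads normalized to a spiked-in non-cleaving sequence or to the top sequences, then scaled and log-transformed. The top set was 25 sequences, the transform was ×100 and log10, and sequences needed ≥100 DNA reads.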

cyclic di-GMP [2] = variants of: B1; test: normalized RNA/DNA level with ligand (relative to sTRSVctl = 100) (log10 (% of sTRSVctl)); HEK293T; ligand: cyclic di-GMP (c-di-GMP-II aptamer); ligand concentration (+) RNA-Seq: 1 mM; higher = less ribozyme self-cleavage, higher mRNA level; settings: reporter: mCherry (pCS4076), ligand present: yes
How it was run: as §1

Variant	normalized RNA/DNA level without ligand (log10) (cyclic di-GMP [1])	normalized RNA/DNA level with ligand (log10) (cyclic di-GMP [2])
UAUUGU	1.67 ± 0.034	1.81 ± 0.11
UAUUGA	1.6713 ± 0.00062	1.83 ± 0.1
UAUUGG	1.75 ± 0.061	1.87 ± 0.076
UAUUGC	1.76 ± 0.025	1.87 ± 0.088
CCAGAU	1.65 ± 0.025	1.81 ± 0.12
CCAGAG	1.42 ± 0.049	1.62 ± 0.17
GCACAG	1.58 ± 0.061	1.71 ± 0.14
UCAUCC	1.78 ± 0.027	1.9 ± 0.082
UCAUCG	1.79 ± 0.023	1.88 ± 0.086
UCAGAG	1.53 ± 0.045	1.69 ± 0.042
UCAGAC	1.63 ± 0.017	1.76 ± 0.13
UCAGAA	1.35 ± 0.17	1.65 ± 0.14
UCAAAC	1.63 ± 0.026	1.8 ± 0.079
UCAAAU	1.5 ± 0.063	1.71 ± 0.092
UCAAAG	1.602 ± 0.012	1.77 ± 0.12
CAUUCC	1.781 ± 0.0028	1.87 ± 0.041
CAUUCA	1.38 ± 0.087	1.56 ± 0.12
CAUUCU	1.55 ± 0.07	1.73 ± 0.12
CAUUCG	1.83 ± 0.091	1.95 ± 0.14
UAUGCU	1.72 ± 0.043	1.86 ± 0.11
UAUGCG	1.78 ± 0.029	1.86 ± 0.1
UAUGCC	1.81 ± 0.042	1.91 ± 0.15
UAUGCA	1.77 ± 0.061	1.87 ± 0.16

Variant	normalized RNA/DNA level without ligand (log10) (cyclic di-GMP [1])	normalized RNA/DNA level with ligand (log10) (cyclic di-GMP [2])
CCAGCC	1.762 ± 0.0075	1.86 ± 0.13
CCAGCU	1.682 ± 0.011	1.86 ± 0.084
CCAGCG	1.76 ± 0.036	1.91 ± 0.097
ACACUG	1.48 ± 0.04	1.68 ± 0.077
ACACUC	1.637 ± 0.0033	1.77 ± 0.11
ACACUU	1.47 ± 0.091	1.72 ± 0.092
UCACGG	1.82 ± 0.07	1.9 ± 0.1
UCACGC	1.7 ± 0.045	1.84 ± 0.08
CCAACU	1.56 ± 0.0039	1.75 ± 0.15
CCAACG	1.71 ± 0.049	1.85 ± 0.1
CCAACA	1.53 ± 0.029	1.72 ± 0.13
AAUUCU	1.769 ± 0.0077	1.9 ± 0.092
AAUUCG	1.6472 ± 0.0012	1.8 ± 0.12
AAUUCC	1.79 ± 0.028	1.88 ± 0.14
AAUUCA	1.62 ± 0.078	1.8 ± 0.12
GAUUAC	1.722 ± 0.0096	1.83 ± 0.081
GAUUAU	1.62 ± 0.022	1.77 ± 0.07
GAUUAG	1.68 ± 0.046	1.8 ± 0.089
GAUUCC	1.8 ± 0.097	1.87 ± 0.14
GAUUCG	1.7482 ± 0.0012	1.88 ± 0.06
GAUUCA	1.72 ± 0.021	1.85 ± 0.064
GAUUCU	1.748 ± 0.014	1.86 ± 0.12
CCAAAG	1.41 ± 0.056	1.61 ± 0.1

Variant	normalized RNA/DNA level without ligand (log10) (cyclic di-GMP [1])	normalized RNA/DNA level with ligand (log10) (cyclic di-GMP [2])
CCAAAA	1.35 ± 0.091	1.62 ± 0.079
UCAAUC	1.63 ± 0.01	1.8 ± 0.12
AAUGGU	1.62 ± 0.048	1.76 ± 0.1
GCAAGA	1.33 ± 0.12	1.54 ± 0.1
GCAAGG	1.41 ± 0.14	1.57 ± 0.11
GCAAGU	1.39 ± 0.16	1.64 ± 0.082
GCAGGG	1.6 ± 0.05	1.74 ± 0.082
GCAGGC	1.58 ± 0.032	1.71 ± 0.025
GCAGGA	1.4 ± 0.075	1.56 ± 0.091
UCAACA	1.708 ± 0.0058	1.81 ± 0.096
UCAACG	1.77 ± 0.024	1.89 ± 0.096
UCAACC	1.78 ± 0.044	1.9 ± 0.067
UCAACU	1.707 ± 0.0018	1.86 ± 0.069
GAUGCC	1.772 ± 0.014	1.84 ± 0.1
GAUGCG	1.82 ± 0.063	1.89 ± 0.13
GAUGCU	1.73 ± 0.033	1.85 ± 0.12
ACACCU	1.63 ± 0.031	1.81 ± 0.078
ACACCA	1.59 ± 0.029	1.76 ± 0.11
ACACCC	1.73 ± 0.012	1.86 ± 0.069
GCACUG	1.54 ± 0.092	1.75 ± 0.074
CCAAGC	1.59 ± 0.059	1.76 ± 0.13
CCAAGG	1.688 ± 0.013	1.8 ± 0.1
UAUUCG	1.756 ± 0.0047	1.87 ± 0.13

Variant	normalized RNA/DNA level without ligand (log10) (cyclic di-GMP [1])	normalized RNA/DNA level with ligand (log10) (cyclic di-GMP [2])
UAUUCA	1.8 ± 0.032	1.88 ± 0.053
UAUUCC	1.77 ± 0.029	1.88 ± 0.12
CAUUGG	1.804 ± 0.0056	1.93 ± 0.15
CAUUGC	1.78 ± 0.056	1.85 ± 0.15
CAUUGA	1.602 ± 0.0057	1.76 ± 0.13
CAUUGU	1.78 ± 0.023	1.88 ± 0.046
GAUGUC	1.7082 ± 0.001	1.87 ± 0.12
GAUGUG	1.71 ± 0.032	1.8 ± 0.1
GAUGUU	1.62 ± 0.037	1.78 ± 0.086
CCAUCG	1.73 ± 0.088	1.84 ± 0.1
CCAUCA	1.66 ± 0.052	1.77 ± 0.12
CCAUCC	1.81 ± 0.043	1.92 ± 0.092
ACAGGG	1.5 ± 0.11	1.58 ± 0.15
ACAGGC	1.5 ± 0.065	1.68 ± 0.11
ACAGGA	1.3 ± 0.067	1.41 ± 0.16
ACAGGU	1.42 ± 0.16	1.64 ± 0.07
ACAGAC	1.49 ± 0.056	1.71 ± 0.049
CAUGGU	1.648 ± 0.0024	1.77 ± 0.16
CAUGGG	1.682 ± 0.0032	1.84 ± 0.094
CAUGGC	1.715 ± 0.005	1.84 ± 0.09
GCAGCA	1.82 ± 0.022	1.89 ± 0.092
GCAGCC	1.6725 ± 0.00097	1.83 ± 0.14
GCAGCG	1.83 ± 0.035	1.92 ± 0.072

Variant	normalized RNA/DNA level without ligand (log10) (cyclic di-GMP [1])	normalized RNA/DNA level with ligand (log10) (cyclic di-GMP [2])
ACAGUA	1.31 ± 0.048	1.51 ± 0.15
ACAGUC	1.62 ± 0.045	1.78 ± 0.11
ACAGUG	1.51 ± 0.11	1.68 ± 0.067
CCACGA	1.6 ± 0.04	1.74 ± 0.086
CCACGU	1.64 ± 0.046	1.81 ± 0.13
CCACGC	1.66 ± 0.022	1.83 ± 0.12
CCACGG	1.79 ± 0.058	1.89 ± 0.037
UCAGGA	1.45 ± 0.071	1.67 ± 0.099
UCAGGG	1.64 ± 0.023	1.81 ± 0.12
UCAGGC	1.71 ± 0.027	1.84 ± 0.11
UCAGGU	1.58 ± 0.12	1.76 ± 0.12
CCACCG	1.74 ± 0.078	1.89 ± 0.14
CCACCC	1.798 ± 0.016	1.87 ± 0.097
CCACCA	1.7068 ± 0.0011	1.82 ± 0.11
GCAGUG	1.736 ± 0.0028	1.78 ± 0.11
GCAGUU	1.45 ± 0.082	1.65 ± 0.11
GCAGUC	1.31 ± 0.064	1.51 ± 0.1
ACAGCU	1.55 ± 0.062	1.73 ± 0.12
ACAGCC	1.66 ± 0.027	1.84 ± 0.1
ACAGCA	1.66 ± 0.046	1.75 ± 0.095
CCACUC	1.7 ± 0.022	1.8 ± 0.1
CCACUG	1.39 ± 0.042	1.63 ± 0.12
ACACGU	1.62 ± 0.043	1.83 ± 0.081
